In PMC6086316:

Key:
[1] = target: recombinant mature interleukin-8 (IL-8) (human); experiment: ELISA; cytokines (6 pmol per well) coated on Maxisorp plates; 490 nM emHofQ with C-terminal 8-His tail in PBS, 4°C overnight; detection with His-Probe-HRP; values compared with BSA control
[2] = target: human mature interleukin-1β (IL-1β, amino acids 117-269) (human); experiment: as above
[3] = target: recombinant mature interleukin-8 (IL-8) (human); experiment: time-resolved fluorometric immunoassay (TRFIA); 60 pmol IL-8 or IL-1β coated on wells; emHofQ wild type and mutants 5 nM-2 μM, 4°C overnight; Eu-N1 anti-6xHis antibody; apparent Kd
[4] = target: human mature interleukin-1β (IL-1β, amino acids 117-269) (human); experiment: as above
[5] = target: recombinant mature interleukin-8 (IL-8) (human); experiment: time-resolved fluorometric immunoassay (TRFIA); 6 pmol IL-8 or IL-1β coated on wells; C-His-emHofQ 10-740 nM in Delfia Assay Buffer, RT 1 h; Eu-N1 anti-6xHis antibody; one-to-one fit
[6] = target: human mature interleukin-1β (IL-1β, amino acids 117-269) (human); experiment: as above
[7] = target: recombinant emHofQ (without a His tail) (Aggregatibacter actinomycetemcomitans); experiment: thermal shift assay (differential scanning fluorometry); PBS, SYPRO orange; 5 μM emHofQ with 5-200 μM IL-8, or 5 μM IL-1β with 2.5-50 μM emHofQ; heated 20-99°C
[8] = target: N-His-emHofQ (Aggregatibacter actinomycetemcomitans); experiment: SPR; Biacore X; N-His-emHofQ coupled to Ni-NTA chip (115-199 RU); IL-8 injected at 1-15 000 nM, 30 μl/min; 10 mM HEPES, 150 mM NaCl, 0.005% P-20, pH 7.4; one-site binding model; apparent
[9] = target: human mature interleukin-1β (IL-1β, amino acids 117-269) (human); experiment: thermal shift assay (differential scanning fluorometry); PBS, SYPRO orange; 5 μM emHofQ with 5-200 μM IL-8, or 5 μM IL-1β with 2.5-50 μM emHofQ; heated 20-99°C

Chain of human mature interleukin-1β (IL-1β, amino acids 117-269) (human) (P01584 117-269): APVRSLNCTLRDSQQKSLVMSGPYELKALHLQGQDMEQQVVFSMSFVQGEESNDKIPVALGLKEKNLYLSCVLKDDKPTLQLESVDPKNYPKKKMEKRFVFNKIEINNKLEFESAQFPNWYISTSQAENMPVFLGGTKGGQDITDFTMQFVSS

## C-His emHofQ (extramembranous domain of the secretin HofQ, C-terminal His tag) (domain or fragment)
[1]
  fold binding over the control (BSA): 4 fold
[2]
  fold binding over the control (BSA): 1.3 fold
[3]
  Kd: 44 nM
[4]
  Kd: 90 nM
[5]
  Kd: 43 nM
[6]
  Kd: 140 nM

## recombinant mature interleukin-8 (IL-8) (natural protein)
[7]
  Tm of emHofQ with 200 μM IL-8 (45.3°C without): 51.7 °C
[8]
  Kd: 2400 nM

## emHofQ_L1 (H136A, F137A, K139A) (domain or fragment)
[3]
  Kd: 190 nM

## recombinant emHofQ (without a His tail) (domain or fragment)
[9]
  Tm of IL-1β with 50 μM emHofQ (60.2°C without): 55.8 °C

## emHofQ_L1L2 (H136A, F137A, K139A, D165A, R166A) (domain or fragment)
[3]
  Kd: 200 nM

## emHofQ_L2 (D165A, R166A) (domain or fragment)
[3]
  Kd: 110 nM
